Assays:
[1] = target: human Axl extracellular domain fused to human Fc domain (hAxl-hFc protein; R&D system) (human) (UniProt P30530); test: SPR (BIAcore), hAxl-hFc amine-coupled to a CM5 chip; 20G7-D9 (666 nM by the text) injected first, lower panel
[2] = target: T1, human Axl on the cell surface (A549 cells; pancreatic cancer cell lines) (human, UniProt P30530 26-894); test: flow cytometry on A549 cells, fluorescein-conjugated anti-mouse IgG
T1 construct: whole, on cells; also called cell surface Axl; Axl receptor
T1 sequence (looked up): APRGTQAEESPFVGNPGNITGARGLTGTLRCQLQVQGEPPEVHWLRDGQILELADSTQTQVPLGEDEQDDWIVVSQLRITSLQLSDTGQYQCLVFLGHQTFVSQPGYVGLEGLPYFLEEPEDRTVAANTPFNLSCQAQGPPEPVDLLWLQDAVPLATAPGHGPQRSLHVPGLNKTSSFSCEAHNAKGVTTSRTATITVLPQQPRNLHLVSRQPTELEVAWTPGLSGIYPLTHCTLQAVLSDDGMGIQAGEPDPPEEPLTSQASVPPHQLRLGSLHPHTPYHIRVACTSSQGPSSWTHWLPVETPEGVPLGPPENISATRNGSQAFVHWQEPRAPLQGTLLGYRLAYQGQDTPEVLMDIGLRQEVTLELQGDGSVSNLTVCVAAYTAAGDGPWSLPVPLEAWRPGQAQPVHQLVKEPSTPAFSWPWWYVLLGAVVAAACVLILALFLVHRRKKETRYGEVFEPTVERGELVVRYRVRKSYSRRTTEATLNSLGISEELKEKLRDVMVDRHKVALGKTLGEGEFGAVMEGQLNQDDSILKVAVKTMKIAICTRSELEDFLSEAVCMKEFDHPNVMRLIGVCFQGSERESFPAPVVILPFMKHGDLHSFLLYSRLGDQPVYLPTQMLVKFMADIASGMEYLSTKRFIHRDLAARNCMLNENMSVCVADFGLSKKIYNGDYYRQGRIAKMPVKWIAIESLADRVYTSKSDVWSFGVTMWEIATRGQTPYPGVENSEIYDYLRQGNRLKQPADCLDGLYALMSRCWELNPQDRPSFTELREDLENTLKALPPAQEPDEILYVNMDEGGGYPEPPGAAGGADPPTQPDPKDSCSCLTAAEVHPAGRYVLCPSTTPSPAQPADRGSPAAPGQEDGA
Description: FIG. 2: Flow cytometry analysis of cell surface Axl in A549.
The ability of mouse anti-Axl monoclonal antibodies of the invention to specifically recognize Axl expressing cells was determined by FACS using standard techniques. Briefly, A549 cells (ATCC number: CCL-185) were harvested, stained with purified mouse anti-Axl monoclonal antibodies of the invention at 4° C. for 1 hour, washed three times in PBS-BSA 0.1%, and then stained with fluorescein-conjugated anti-mouse IgG (1:50) (Sigma) at 4° C. in the dark for 45 min. Samples were analyzed on EPICS flow cytometer (Beckman-Coulter, Fullerton, Calif.).

[3] = target: human Axl extracellular domain fused to human Fc domain (hAxl-hFc protein; R&D system) (human) (UniProt P30530); test: SPR (BIAcore 3000), hAxl-hFc amine-coupled on CM5 chip, mAb injected at 2 to 133 nM, 25 °C, 1:1 Langmuir model; hAxl-hFc on the CM5 chip, mAb injected at 2 to 133 nM, 25 C
human Mer-Fc = target: T2, human Mer-Fc (human, UniProt Q12866 26-499, limits assumed); test: ELISA, plates with human Mer-Fc, HRP-conjugated anti-mouse IgG, OD 450 nm
T2 construct: also called h-Mer; not shown: Fc part
T2 sequence (looked up): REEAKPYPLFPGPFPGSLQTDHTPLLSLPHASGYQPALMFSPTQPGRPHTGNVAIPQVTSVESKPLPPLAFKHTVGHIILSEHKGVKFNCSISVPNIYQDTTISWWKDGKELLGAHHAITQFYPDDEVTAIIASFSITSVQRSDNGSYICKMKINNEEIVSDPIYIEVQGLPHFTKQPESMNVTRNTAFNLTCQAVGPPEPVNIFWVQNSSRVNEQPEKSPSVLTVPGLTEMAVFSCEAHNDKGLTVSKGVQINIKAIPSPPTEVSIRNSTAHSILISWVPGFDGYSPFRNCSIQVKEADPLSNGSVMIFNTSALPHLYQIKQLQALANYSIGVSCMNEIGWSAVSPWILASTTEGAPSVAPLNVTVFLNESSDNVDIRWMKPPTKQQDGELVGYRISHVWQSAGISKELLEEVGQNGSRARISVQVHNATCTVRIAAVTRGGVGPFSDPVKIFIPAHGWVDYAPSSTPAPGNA
Description: (§1) FIG. 1: ELISA experiments to investigate the affinity and the specificity of mouse monoclonal antibodies against hAxl.
(§2) For cross reaction assay, coated plates were incubated with human Axl-Fc (h-Axl), mouse Axl-Fc (m-Axl) or human Mer-Fc (h-Mer), Tyro-3-Fc (h-Tyro-3) for 1 hour at 37° C. and washed four times in PBST. Plates were incubated with anti-Axl mAbs (2 hours at 37° C.) and washed four times in PBST. Plates were incubated with HRP-conjugated anti-mouse IgG (Sigma) at a 1:2000 dilution in PBST, 1% BSA (1 hour at 37° C.). Finally, an ortho-phenylenediamine solution (Sigma) was added for 30 min at room temperature in the dark and the absorbance was measured at 450 nm.

Tyro-3-Fc (h-Tyro-3) = target: T3, Tyro-3-Fc (h-Tyro-3) (human, UniProt Q06418 41-428, limits assumed); test: ELISA, plates with human Tyro-3-Fc, HRP-conjugated anti-mouse IgG, OD 450 nm
T3 construct: The species is read from the label 'h-Tyro-3'; also called human Tyro-3-Fc; not shown: Fc part
T3 sequence (looked up): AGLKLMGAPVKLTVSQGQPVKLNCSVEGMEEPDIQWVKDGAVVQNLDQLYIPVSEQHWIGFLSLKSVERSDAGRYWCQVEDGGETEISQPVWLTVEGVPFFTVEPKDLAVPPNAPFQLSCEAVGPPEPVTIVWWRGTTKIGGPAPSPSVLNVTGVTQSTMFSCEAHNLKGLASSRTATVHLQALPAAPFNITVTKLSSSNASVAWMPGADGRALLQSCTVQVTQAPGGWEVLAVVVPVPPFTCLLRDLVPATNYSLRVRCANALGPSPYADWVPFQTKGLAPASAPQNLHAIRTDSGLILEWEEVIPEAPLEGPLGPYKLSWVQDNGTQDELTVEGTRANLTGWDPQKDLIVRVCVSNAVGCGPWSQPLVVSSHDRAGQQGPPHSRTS
Description: as §1, §2

mouse Axl-Fc = target: T4, mouse Axl-Fc (mouse, UniProt Q00993 20-443, limits assumed); test: ELISA, plates with mouse Axl-Fc, HRP-conjugated anti-mouse IgG, OD 450 nm
T4 construct: also called m-Axl; not shown: Fc part
T4 sequence (looked up): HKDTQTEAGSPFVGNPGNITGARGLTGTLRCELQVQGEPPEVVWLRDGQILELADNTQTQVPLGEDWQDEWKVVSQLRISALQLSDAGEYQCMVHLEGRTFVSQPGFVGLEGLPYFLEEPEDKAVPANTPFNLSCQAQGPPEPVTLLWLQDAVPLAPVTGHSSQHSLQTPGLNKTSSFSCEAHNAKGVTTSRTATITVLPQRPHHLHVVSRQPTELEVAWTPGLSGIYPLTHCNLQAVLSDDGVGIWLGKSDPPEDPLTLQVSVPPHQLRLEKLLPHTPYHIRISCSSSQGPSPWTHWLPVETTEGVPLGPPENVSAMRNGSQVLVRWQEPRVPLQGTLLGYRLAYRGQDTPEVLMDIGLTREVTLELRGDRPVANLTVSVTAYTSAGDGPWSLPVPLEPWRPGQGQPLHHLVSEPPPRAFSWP
Description: as §1, §2

[4] = target: human Axl extracellular domain fused to human Fc domain (hAxl-hFc protein; R&D system) (human) (UniProt P30530); test: SPR (BIAcore), hAxl-hFc amine-coupled to a CM5 chip; 20G7-D9 (666 nM by the text) injected second, without removing Gas6, upper panel

response (RU) [1]: 2530 RU | binding result [2]: binds | Kd [3]: 53 nM | binding result (human Mer-Fc): no binding | binding result (Tyro-3-Fc (h-Tyro-3)): no binding | binding result (mouse Axl-Fc): no binding | response (RU) [4]: 2280 RU
B1: mouse anti-Axl monoclonal antibody 20G7-D9 (antibody, V domains shown)
VH: QVQLQQSGAELMKPGASVKMSCKAAGYTFSSYWIEWVRQRPGHGLEWIGEIFPGSDSTNYNEKFNDRATFTADTSSNTAYMQLSSLTSEDSAVYYCARPLYYGSSAWFAYWGQGTLVTVSA
VL: DIQMTQSPASLSASVGETVTITCRASENIYSYLTWYQQKQRKSPQLLVYNAKTLAEGVPSRFSGSGSGTQFSLKINSLQPEDFGTYYCQHHYATPWTFGGGTKVEIK
notes: the irrelevant control Px is called 'murine IgG1 isotype mAb'; also called mAb 20G7-D9; mAb 20G7D9
